Measured values as given in patent US20030232009A1 (Amgen, published 2003).

Assays:
[1] = target: T1, Human 20.2 peptide (human); test: recombinant antibody on peptide
T1 construct: synthetic peptide from the RB exon
T1 peptide: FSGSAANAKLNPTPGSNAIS

[2] = target: T2, Macaque 46 mer peptide (RB exon of macaque CD45RB) (macaque); test: recombinant antibody on peptide
T2 construct: synthetic peptide
T2 peptide: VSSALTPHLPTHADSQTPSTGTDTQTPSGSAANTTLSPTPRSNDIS

[3] = target: T3, Human 18 mer peptide (human); test: recombinant antibody on peptide
T3 construct: synthetic peptide from the RB exon
T3 peptide: VSSVQTPHLPTHADSQTPC

[4] = target: T4, Human 20.1 peptide (human); test: recombinant antibody on peptide
T4 construct: synthetic peptide from the RB exon
T4 peptide: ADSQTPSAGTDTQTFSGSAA

[5] = target: T5, chimeric CD45RB (full length human CD45RB with the macaque RB exon) transiently expressed in CHO cells (human; macaque, UniProt P08575-9 26-33; P08575-9 81-1192); test: transiently transfected CHO cells
T5 construct: whole chimeric protein on CHO cells; also called Macaque CD45RB CHO
T5 sequence: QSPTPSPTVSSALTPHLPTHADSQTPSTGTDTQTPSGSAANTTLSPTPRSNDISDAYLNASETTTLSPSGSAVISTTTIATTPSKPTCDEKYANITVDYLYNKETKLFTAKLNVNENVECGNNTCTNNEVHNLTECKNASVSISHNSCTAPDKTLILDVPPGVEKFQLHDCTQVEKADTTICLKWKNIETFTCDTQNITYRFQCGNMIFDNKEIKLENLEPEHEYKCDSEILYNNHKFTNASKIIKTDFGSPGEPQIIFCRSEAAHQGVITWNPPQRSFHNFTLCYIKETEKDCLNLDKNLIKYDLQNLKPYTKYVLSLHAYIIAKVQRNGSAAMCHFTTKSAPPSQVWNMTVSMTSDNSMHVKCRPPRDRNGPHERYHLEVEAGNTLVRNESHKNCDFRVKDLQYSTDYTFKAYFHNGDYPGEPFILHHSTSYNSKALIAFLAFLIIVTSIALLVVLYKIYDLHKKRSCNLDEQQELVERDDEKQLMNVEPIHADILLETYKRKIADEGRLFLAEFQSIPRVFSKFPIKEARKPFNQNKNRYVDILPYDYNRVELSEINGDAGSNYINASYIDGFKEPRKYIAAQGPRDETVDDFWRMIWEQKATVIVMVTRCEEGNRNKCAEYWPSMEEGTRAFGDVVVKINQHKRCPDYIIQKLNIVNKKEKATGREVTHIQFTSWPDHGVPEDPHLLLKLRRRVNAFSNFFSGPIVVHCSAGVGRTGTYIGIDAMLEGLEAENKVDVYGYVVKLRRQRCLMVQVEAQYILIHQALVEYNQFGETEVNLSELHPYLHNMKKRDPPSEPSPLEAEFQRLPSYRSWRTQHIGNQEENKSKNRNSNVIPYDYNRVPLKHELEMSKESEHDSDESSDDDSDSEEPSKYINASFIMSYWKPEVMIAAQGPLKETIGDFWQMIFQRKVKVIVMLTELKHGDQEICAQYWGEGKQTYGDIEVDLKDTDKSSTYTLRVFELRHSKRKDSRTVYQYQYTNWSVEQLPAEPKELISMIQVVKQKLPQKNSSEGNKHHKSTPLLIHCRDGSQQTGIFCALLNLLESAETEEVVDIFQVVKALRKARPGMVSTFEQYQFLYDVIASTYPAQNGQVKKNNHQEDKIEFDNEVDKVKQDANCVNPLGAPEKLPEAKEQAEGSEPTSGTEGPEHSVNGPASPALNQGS

Measured: binding result

B1: AB-CD45RB-XG2-475 (antibody, human IgG2, V domains shown)
VH: AVQLLESGGGLIQPGGSLRLSCAASGFTFSSYAMSWVRQAPGKGLEWVSAISGSGGSTFYADSVRGRFTISRDNSKNTLYLQMNSLRVEDTAVYYCAKEVMGPIFFDYWGQGTLVTVSS
VL: EIVLTQSPGTLSLSPGERATLSCRASQSIISSALAWYQQKPGQAPRLLIYGASSRATGIPDRFSGSGSGTDFTLTISRLEPEDFAVYHCQQYGSTPLTFGGGTKVEIK
notes: recombinant human IgG2 kappa; also called sc475
no binding: [1]

B2: AB-CD45RB-XG2-525 (antibody, human IgG2, V domains shown)
VH: QVQLVESGGGVVQPGRSLRVSCAASGFTFSNYGMHWVRQAPGKGLEWVAVIWYDGSKKFYADSVKGRFTISRDNSQNTLSLQMSSLRAEDTAVYYCARGGGDFDFWGQGTLVTVSS
VL: KIVMTQSPATLSVSPGERATLSCRASQSLSGSYLAWYQQRPGQAPRLLIYGASTRATGIPARFSGSGSGTEFTLTISSLQSEDFAVYYCQQYNKWPPLTFGGGTKVEIK
notes: recombinant human IgG2 kappa; also called sc525
no binding: all assays above

B3: AB-CD45RB-XG2-026 (antibody, human IgG2, V domains shown)
VH: QVQLVESGGGVVQPGRSLRLSCAASGFTFSNYGMHWVRQAPGKGLEWVAVIWYDGSNKYYADSVKGRFTISRDNSKNTLYLQMNSLRAEDTAVYYCARGGGDFDYWGQGTLVTVSS
VL: EIVMTQSPATLSVSPGERVTLSCRASQTISGSYLAWYQQKPGQAPRLLIYGAFTRATGIPARFSGSGSGTEFTLTISSLQSEDFAVYYCQQYNNWPPLTFGGGTRVEIK
notes: recombinant human IgG2 kappa; also called sc026; 1G10 (sc026)
no binding: all assays above

B4: AB-CD45RB-XG2-606 (antibody, human IgG2, V domains shown)
VH: QVQLAESGGGVVQPGRSLRLSCAASGFTFSNYGMHWVRQAPGKGLEWVAIIWYDGSKKFYADSVKGRFTISRDNSNNTLYLHVNSLRVEDTAVYYCARGGGDIDFWGQGTLVTVSS
VL: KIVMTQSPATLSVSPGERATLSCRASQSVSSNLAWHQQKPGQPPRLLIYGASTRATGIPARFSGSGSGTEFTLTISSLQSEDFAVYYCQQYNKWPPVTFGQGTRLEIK
notes: recombinant human IgG2 kappa; also called sc606
no binding: all assays above

B5: AB-CD45RB-XG2-593 (antibody, human IgG2, V domains shown)
VH: QVQLVESGGGVVQPGRSLRVSCAASGFTFSNYGMHWVRQAPGKGLEWVAVIWYDGSKKFYADSVKGRFTISRDNSQNTLSLQMSSLRAEDTAVYYCARGGGDFDFWGQGTLVTVSS
VL: KIVMTQSPATLSVSPGERATLSCRASQSVSGNYLAWYQQRPGQAPRLLIYGASTRATGIPARFSGSGSGTEFTLTISSLQSEDFAVYYCQQYGKWPPLTFGGGTKVEIK
notes: recombinant human IgG2 kappa; also called sc593
no binding: all assays above

B6: AB-CD45RB-XG2-487 (antibody, human IgG2, V domains shown)
VH: QVQLVESGGGVVQPGRSLRVSCEASGFTFSNYGMHWVRQAPGKGLEWVAVIWYDGSKKFYADSVKGRFTISRDNSQNTLSLQMSSLRAEDTAVYYCARGGGDFDFWGQGTLVTVSS
VL: KIVMTQSPATLSVSPGERATLSCRASQSVSGNYLAWYQQRPGQAPRLLIYGASTRATGIPARFSGSGSGTEFTLTISSLQSEDFAVYYCQQYGKWPPLTFGGGTKVEIK
notes: recombinant human IgG2 kappa; also called sc487
no binding: all assays above

B7: AB-CD45RB-XG2-713 (antibody, human IgG2, V domains shown)
VH: QVQLVESGGGVVQPGRSLRLSCAASGFTFSNYGMHWVRQAPGKGLEWVAVIWYDGSKKFYADSVKGRFTISRDNFEKTLYLQMNSLRAEDTAVYYCARGGGDFDYWGQGTLVTVSS
VL: EIVMTQSPATLSVSPGERATLSCRASQSLSGSYLAWYQQKPGQAPRLLIYSASTRATGIPARFSGSGSGTEFTLTISSLQSEDFAVYYCQQYNNWPPLTFGGGTKVEIK
notes: recombinant human IgG2 kappa; also called sc713
no binding: all assays above

B8: AB-CD45RB-XG2-493 (antibody, human IgG2, V domains shown)
VH: QVQLVESGGGVVQPGRSLRVSCAASGFTFSNYGMHWVRQAPGKGLEWVAVIWYDGSKKFYADSVKGRFTISRDNSQNTLSLQMSSLRAEDTAVYYCARGGGDFDFWGQGTLVTVSS
VL: KIVMTQSPVTLSVSPGERATLSCRACQSVSGSYLAWYQQRPGQAPRLLIYGASTRATGIPARFSGSGSGTEFTLTISSLQSEDFAVYYCQQYGKWPPLTFGGGTKVEIK
notes: recombinant human IgG2 kappa; also called sc493
no binding: all assays above

B9: AB-CD45RB-XG2-502 (antibody, human IgG2, V domains shown)
VH: QVQLVESGGGVVQPGRSLRVSCAASGFTFSNYGMHWVRQAPDKGLEWVAVIWYDGSKKFYADSVKGRFTISRDNSQNTLSLQMSSLRAEDTAVYYCARGGGDFDFWGQGTLVTVSS
VL: KIVMTQSPATLSVSPGERATLSCRASQSVSGNYLAWYQRRPGQAPRLLIYGASTRATGIPARFSGSGSGTEFTLTISSLQSEDFAVYYCQQYGKWPPLTFGGGTKVEIK
notes: recombinant human IgG2 kappa; also called sc502
no binding: [3] | [1] | [5]

B10: AB-CD45RB-XG2-569 (antibody, human IgG2, V domains shown)
VH: QVQLQESGPGLVKPSETLSLTCTVSGGSISGYYWSWIRQPAGKGLEWIGRIHTTGKTAYNSSLKSRVIMSVDTSKNLFSLKLTSVTAADTAVYYCARDYDFLTGYFDYWGQGTLVTVSS
VL: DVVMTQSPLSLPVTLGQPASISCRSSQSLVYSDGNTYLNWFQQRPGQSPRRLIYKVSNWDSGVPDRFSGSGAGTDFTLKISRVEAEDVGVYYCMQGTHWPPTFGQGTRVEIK
notes: recombinant human IgG2 kappa; also called sc569
no binding: [1]

B11: AB-CD45RB-XG2-275 (antibody, human IgG2, V domains shown)
VH: QVQLVESGGGVVQPGRSLRLSCAASGFTFSKFGMHWVRQAPDKGLEWVAVIWYDGTYKYYADSVKGRFTISRDNSKNTLYLQMNSLRAEDTAVYYCARGGGSFDYWGQGTLVTVSS
VL: DIVMTQTPLSLSVTPGQPASISCKSSQSLLHSDGKTFLYWYLQKPGQPPQLLIYEVSNRFSGVPDRFSGSGSGIDFTLKISRVEAEDVGVYYCMQSIQFPITFGQGTRLEIK
notes: recombinant human IgG2 kappa; also called sc275
no binding: [1]

B12: AB-CD45RB-XG2-324 (antibody, human IgG2, V domains shown)
VH: QVQLVESGGGVVQPGRSLRLSCAASGFTFSKFGMHWVRQAPDKGLEWVAVIWYDGSYKYYADSVKGRFTISRDNSKNTLYLQMNSLRAEDTAAYYCARGGGSFDYWGQGTLVTVSS
VL: DIVMTQTPLSLSVTPGQPASISCKSSQSLLHSDGKTFLYWYLQKPGQPPQLLIYEVSNRFSGVPDRFSGSGSGIDFTLKISRVEAEDVGVYYCMQSIQFPITFGQGTRLEIK
notes: recombinant human IgG2 kappa; also called sc324; 39E11 (sc324)
no binding: [1]

B13: AB-CD45RB-XG2-416 (antibody, human IgG2, V domains shown)
VH: QVQLVESGGGVVQPGRSLRLSCAASGFTFSRYGMHWVRQAPGKGLEWVAVIWYDGSNKYYADSVKGRFTISRDNSKNTLYLQVNSLRAEDTAVYYCARGGGSFDYWGQGTLVTVSS
VL: DIVMTQTPLSLSVTPGQPASISCKSSQSLLHSDGKTFLYWYLQKPGQPPQLLIYEVSNRFSGVPDRFGGSGSGTDFTLKISRVEAEDVGVYYCMQSIQFPITFGQGTRLEIE
notes: recombinant human IgG2 kappa; also called sc416
no binding: [1]

B14: AB-CD45RB-XG2-413 (antibody, human IgG2, V domains shown)
VH: QVQLVESGGGVVQPGRSLRLSCAASGFTFSSYGMHWVRQAPDKGLEWVAVIWYDGSYKYYADSVKGRFTISRDNSKNTLYLQMNSLRAEDTAVYYCARGGGSFDYWGQGTLVTVSS
VL: DIVMTQTPLSLSVTPGQPASISCKSSQSLLHRDGKTFLYWYLQKPGQPPQLLIYEVSNRFSGVPDRFSGSGSGTDFTLKISRVEAEDVGVYYCMQSIQFPITFGQGTRLEIK
notes: recombinant human IgG2 kappa; also called sc413
no binding: [1]
